Assay results as given in publication PMC7954794, “Protein context shapes the specificity of SH3 domain-mediated interactions in vivo” (Nature Communications, 2021).

System: PPIs identified as affected by the SH3 domain deletions
Assay: Liquid DHFR-PCA low-throughput validation of PPIs affected by SH3 deletion (Fig. S1D-E)
Format: cell-based, Saccharomyces cerevisiae
Conditions: label = prey, liquid DHFR-PCA, prey _1 = lost, _2 = gained in screen
How it was run: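 Yeast diploids from DHFR-PCA mating grown 48 h in synthetic complete MSG medium pH 6.0 with NAT and HPH, normalized to 1 OD and diluted to 0.1 OD in liquid PCA selection medium. Growth followed by OD every 15 min for 72 h at 30 °C.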

Molecule	Ratio (Deletedscore / WTscore) (bait BBC1)	Ratio (Deletedscore / WTscore) (bait MYO3)	Ratio (Deletedscore / WTscore) (bait MYO5)	also measured
YLR196W_1 (protein, UniProt P21304 1-576, looked up) Periodic tryptophan protein 1: MISATNWVPRGFSSEFPEKYVLDDEEVERINQLAQLNLDDAKATLEEAEGESGVEDDAATGSSNKLKDQLDIDDDLKEYNLEEYDDEEIADNEGGKDVSMFPGLSNDSDVKFHEGEKGEDPYISLPNQEDSQEEKQELQVYPSDNLVLAARTEDDVSYLDIYVYDDGAGFHSSDIPVEEGDEADPDVARGLVRDPALYVHHDLMLPAFPLCVEWLDYKVGSNSEEAANYAAIGTFDPQIEIWNLDCVDKAFPDMILGEPLDNSMVSLKSKKKKKKSKTGHITTHHTDAVLSMAHNKYFRSVLASTSADHTVKLWDLNSGNAARSLASIHSNKNVSSSEWHMLNGSILLTGGYDSRVALTDVRISDESQMSKYWSAMAGEEIETVTFASENIILCGTDSGNVYSFDIRNNENRKPVWTLKAHDAGISTLCSNKFIPGMMSTGAMGEKTVKLWKFPLDDATNTKGPSMVLSRDFDVGNVLTSSFAPDIEVAGTMVIGGVNKVLKLWDVFTNRSVRKSFKSELENVQARAKEEAQKIGKSSRIARKYTSNDNPDTVITIDDQGEDEEEREGGDEHDDMA	1.08	–	–	–
YGR229C_1 (protein, UniProt P32566 1-505, looked up) Cell wall assembly regulator …: MDLFKRKVKEWVYSLSTDDHYAEYNPDETPTFNMGKRLNSNNGQVNPSQMHLNSVDEEMSMGFQNGVPSNEDINIDEFTSTESNDGVSETLLAWRHIDFWTSEHNPDLNATLSDPCTQNDITHAEEDLEVSFPNPVKASFKIHDGQEDLESMTGTSGLFYGFQLMTLDQVVAMTQAWRNVAKNLNKRSQQGLSHVTSTGSSSSMERLNGNKFKLPNIPDQKSIPPNAVQPVYAHPAWIPLITDNAGNHIGVDLAPGPNGKYAQIITFGRDFDTKFVIAENWGEFLLSFANDLEAGNWYLVDDNDDYFSGDGELVFRDKKSNGPIQDYFEVLKRRTWIKYQENLRSQQQKSQPDTSLQEQKYVPASQKKVAAEQPSTLNAESIKGEDSGSADVQSVQDHESVKIVKTEPSEAETTTVNTESLGQAEHEIKADNVDIKQESERKEDEKQPKVEEKEHVENEHVTESAKKDDDVNKQTEEMNKKEENEIRSDDAKVEEAREEFENIAL	0.6664	–	–	Ratio (Deletedscore / WTscore) (bait BEM1-1): 0.1513
YLR337C_1 (protein, UniProt P37370 1-817, looked up) Verprolin: MAGAPAPPPPPPPPALGGSAPKPAKSVMQGRDALLGDIRKGMKLKKAETNDRSAPIVGGGVVSSASGSSGTVSSKGPSMSAPPIPGMGAPQLGDILAGGIPKLKHINNNASTKPSPSASAPPIPGAVPSVAAPPIPNAPLSPAPAVPSIPSSSAPPIPDIPSSAAPPIPIVPSSPAPPLPLSGASAPKVPQNRPHMPSVRPAHRSHQRKSSNISLPSVSAPPLPSASLPTHVSNPPQAPPPPPTPTIGLDSKNIKPTDNAVSPPSSEVPAGGLPFLAEINARRSERGAVEGVSSTKIQTENHKSPSQPPLPSSAPPIPTSHAPPLPPTAPPPPSLPNVTSAPKKATSAPAPPPPPLPAAMSSASTNSVKATPVPPTLAPPLPNTTSVPPNKASSMPAPPPPPPPPPGAFSTSSALSASSIPLAPLPPPPPPSVATSVPSAPPPPPTLTTNKPSASSKQSKISSSSSSSAVTPGGPLPFLAEIQKKRDDRFVVGGDTGYTTQDKQEDVIGSSKDDNVRPSPISPSINPPKQSSQNGMSFLDEIESKLHKQTSSNAFNAPPPHTDAMAPPLPPSAPPPPITSLPTPTASGDDHTNDKSETVLGMKKAKAPALPGHVPPPPVPPVLSDDSKNNVPAASLLHDVLPSSNLEKPPSPPVAAAPPLPTFSAPSLPQQSVSTSIPSPPPVAPTLSVRTETESISKNPTKSPPPPPSPSTMDTGTSNSPSKNLKQRLFSTGGSTLQHKHNTHTNQPDVDVGRYTIGGSNSIVGAKSGNERIVIDDSRFKWTNVSQMPKPRPFQNKTKLYPSGKGSSVPLDLTLFT	0.3637	0.5955	–	Ratio (Deletedscore / WTscore) (bait LSB1): 0.5725; Ratio (Deletedscore / WTscore) (bait LSB3): 0.8547; Ratio (Deletedscore / WTscore) (bait PIN3): 0.5606
YGR281W_1 (protein, UniProt P53049 1-1477, looked up) Oligomycin resistance …: MTITVGDAVSETELENKSQNVVLSPKASASSDISTDVDKDTSSSWDDKSLLPTGEYIVDRNKPQTYLNSDDIEKVTESDIFPQKRLFSFLHSKKIPEVPQTDDERKIYPLFHTNIISNMFFWWVLPILRVGYKRTIQPNDLFKMDPRMSIETLYDDFEKNMIYYFEKTRKKYRKRHPEATEEEVMENAKLPKHTVLRALLFTFKKQYFMSIVFAILANCTSGFNPMITKRLIEFVEEKAIFHSMHVNKGIGYAIGACLMMFVNGLTFNHFFHTSQLTGVQAKSILTKAAMKKMFNASNYARHCFPNGKVTSFVTTDLARIEFALSFQPFLAGFPAILAICIVLLIVNLGPIALVGIGIFFGGFFISLFAFKLILGFRIAANIFTDARVTMMREVLNNIKMIKYYTWEDAYEKNIQDIRTKEISKVRKMQLSRNFLIAMAMSLPSIASLVTFLAMYKVNKGGRQPGNIFASLSLFQVLSLQMFFLPIAIGTGIDMIIGLGRLQSLLEAPEDDPNQMIEMKPSPGFDPKLALKMTHCSFEWEDYELNDAIEEAKGEAKDEGKKNKKKRKDTWGKPSASTNKAKRLDNMLKDRDGPEDLEKTSFRGFKDLNFDIKKGEFIMITGPIGTGKSSLLNAMAGSMRKTDGKVEVNGDLLMCGYPWIQNASVRDNIIFGSPFNKEKYDEVVRVCSLKADLDILPAGDMTEIGERGITLSGGQKARINLARSVYKKKDIYLFDDVLSAVDSRVGKHIMDECLTGMLANKTRILATHQLSLIERASRVIVLGTDGQVDIGTVDELKARNQTLINLLQFSSQNSEKEDEEQEAVVAGELGQLKYESEVKELTELKKKATEMSQTANSGKIVADGHTSSKEERAVNSISLKIYREYIKAAVGKWGFIALPLYAILVVGTTFCSLFSSVWLSYWTENKFKNRPPSFYMGLYSFFVFAAFIFMNGQFTILCAMGIMASKWLNLRAVKRILHTPMSYIDTTPLGRILNRFTKDTDSLDNELTESLRLMTSQFANIVGVCVMCIVYLPWFAIAIPFLLVIFVLIADHYQSSGREIKRLEAVQRSFVYNNLNEVLGGMDTIKAYRSQERFLAKSDFLINKMNEAGYLVVVLQRWVGIFLDMVAIAFALIITLLCVTRAFPISAASVGVLLTYVLQLPGLLNTILRAMTQTENDMNSAERLVTYATELPLEASYRKPEMTPPESWPSMGEIIFENVDFAYRPGLPIVLKNLNLNIKSGEKIGICGRTGAGKSTIMSALYRLNELTAGKILIDNVDISQLGLFDLRRKLAIIPQDPVLFRGTIRKNLDPFNERTDDELWDALVRGGAIAKDDLPEVKLQKPDENGTHGKMHKFHLDQAVEEEGSNFSLGERQLLALTRALVRQSKILILDEATSSVDYETDGKIQTRIVEEFGDCTILCIAHRLKTIVNYDRILVLEKGEVAEFDTPWTLFSQEDSIFRSMCSRSGIVENDFENRS	0.5928	0.4945	0.6948	Ratio (Deletedscore / WTscore) (bait BEM1-2): 0.6055
YFR024C-A_1 (protein, UniProt P43603 1-459, looked up) LAS seventeen-binding protein …: MGINNPIPRSLKSETKKAAKILASFVKPNQVFGADQVIPPDVLKRAKGLAIITILKAGFLFSGRAGSGVIVARLKDGTWSAPSAIAMAGAGAGGMVGIELTDFVFILNTQDAVKSFSEFGTITLGGNVSVSAGPLGRSAEAAASASAGGVAAVFAYSKSKGLFAGVSVEGSAIIERREANRKFYGDNCTAKMILSGRIRPPPAVDPLFRVLESRAFNYRPSNGGRGSFDDDEDDYYDDDDYYNDIPSSFSSTDASSTRPNTRSTRRRAQSGSRYTFDDDDDDDDYGTGYSRNSRLAPTNSGGSGGKLDDPSGASSYYASHRRSGTAQSRARSSRNRWADDEYDDYDDDYESGYRRGNGRDRTKDREVDDLSNRFSKSRISSASTPQTSQGRFTAPTSPSTSSPKAVALYSFAGEESGDLPFRKGDVITILKKSDSQNDWWTGRVNGREGIFPANYVELV	0.507	0.7743	0.8345	Ratio (Deletedscore / WTscore) (bait BZZ1-1): 0.736; Ratio (Deletedscore / WTscore) (bait HOF1): 1.194; Ratio (Deletedscore / WTscore) (bait RVS167): 0.8585
YHR114W_1 (protein, UniProt P38822 1-633, looked up) Protein BZZ1: MSADLSIGNEIKDSFKETHKWVQNNLKWLKDIEQFYRERAKLEKDYSERLSRLSAEYFNKKSSTSVPISVGDTPTTTPGSIEAAGVVAWNEILSQTDMISKDHDQLSTDFENHVANQLSGLFTKLDMTLSKINGFNNDMVNKKDNIYHELEKAKKDYDEACSTMEMARNRYTKASNDRNKKKLDEKEMEMNKCKNEYLIKINQANRTKDKYYFQDVPEVLDLLQDVNEAKTLFLNDLWLKAASVENDLGANVSKRLQAANSVVKQNKPSLNTAIFIKHNLKNWKEPQDFVYKPSPVWHDDEKFAVPSSLEVEDLRIKLAKAENDYNSLQDKTQNELSKLSTLNKIKHEMKTNEDNINATKFYDTLKEYLNVVSPFTSHETLKLQAEVQIESIQNNVPEEYDLSTDNIDLSKTKKKSGIFSKFKHNILNVDSKPSSGGSTGNGNGGPLHITSLFNTSRRTRLGSAPNNAGEDSDNNSIRTTSTNNTKKTTQNSSDDGKNKVLYAYVQKDDDEITITPGDKISLVARDTGSGWTKINNDTTGETGLVPTTYIRISSAATVKANDRGPAPEVPPPRRSTLPVRTMEAIYAYEAQGDDEISIDPGDIITVIRGDDGSGWTYGECDGLKGLFPTSYCK	0.6315	0.5608	0.7759	Ratio (Deletedscore / WTscore) (bait LSB3): 0.7048; Ratio (Deletedscore / WTscore) (bait RVS167): 0.6256
YKL117W_1 (protein, UniProt P28707 2-216, looked up) Co-chaperone protein SBA1: SDKVINPQVAWAQRSSTTDPERNYVLITVSIADCDAPELTIKPSYIELKAQSKPHVGDENVHHYQLHIDLYKEIIPEKTMHKVANGQHYFLKLYKKDLESEYWPRLTKEKVKYPYIKTDFDKWVDEDEQDEVEAEGNDAAQGMDFSQMMGGAGGAGGAGGMDFSQMMGGAGGAGSPDMAQLQQLLAQSGGNLDMGDFKENDEEDEEEEIEPEVKA	0.6627	–	–	–
